What was measured:
HepG2 cell line = experiment: Gluconeogenesis gene expression in HepG2 cells; type: cell-based; details: HepG2, q-PCR
Method: (§1) FIG. 13. […] The cells were treated with various doses of RUCILP2, and cells were collected for q-PCR quantification on indicated genes. For integrin inhibitor treatment, cells were treated with 10 uM of cRGDyK (Selleckchem, #S7844) for 10 minutes and washed with PBS before treated with RUCILP2. Data are presented as mean+/−SEM of one representative experiment done in technical triplicate. Statistical significance was determined by unpaired two-tailed Student's t-test. *, p<0.05 vs 0 nM RUCILP2.
HepG2 cells were seeded on 12-well plates under DMEM/F-12 medium (Dulbecco's Modified Eagle Medium/Nutrient Mixture F-12, Fisher Scientific, #11524436), supplemented with 10% FBS (Fetal Bovine Serum, Fisher Scientific, #11550356) and 1% Penicillin-Streptomycin (Fisher Scientific, #11548876). Cell cultures were maintained in a humidified chamber with 5% C02 at 37° C., and culture media were changed every 2-3 days.
At 70% confluence, to induce insulin resistance, HepG2 cells were incubated with 18 mM glucosamine (GlcN) for 18 h in serum-free medium, followed by treatment with recombinant RUCILP2 or commercial recombinant irisin (Sigma, #SRP8039-10UG and Phoenix pharmaceuticals, #067-29A), or saline for 24 h. […]

Caco-2 cell line = experiment: Intestinal barrier gene expression in Caco-2 cells (hypoxia/reoxygenation); type: cell-based, human; details: Caco-2, q-PCR
Method: as §1
Commercially available Caco-2 cells (ATCC, #HTB-37) were seeded on 12-well plates under EMEM medium (Eagle's Minimum Essential Medium, ATCC, #30-2003), supplemented with 20% FBS (Fetal Bovine Serum, Fisher Scientific, #11550356) and 1% Penicillin-Streptomycin (Fisher Scientific, #11548876). Cell cultures were maintained in a humidified chamber with 5% CO2 at 37° C., and culture media were changed every 2-3 days.
At 70% confluence, to induce the hypoxia/reoxygenation (H/R) cell culture model, Caco-2 cells were cultured in EMEM medium (glucose and FBS free) and exposed to hypoxia conditions (94% N2, 5% C02 and 1% O2) at 37° C. for 120 minutes. Next, cells were treated for 24 hours with indicated concentrations of recombinant RUCILP2 or commercial recombinant irisin (Sigma, #SRP8039-10UG and Phoenix pharmaceuticals, #067-29A) or PBS immediately at the beginning of reoxygenation. […]

[1] = molecular target: αV/β5 integrin receptor complex (Homo sapiens, UniProt P06756+P18084); experiment: Co-immunoprecipitation on a nickel ion column; type: binding; details: 100 nM Fc-fused RUCILP2, 5 nM His-tag αV/β5 integrin
Method: FIG. 6. Co-immunoprecipitation on a nickel ion column to validate binding of recombinant RUCILP2 to the αV/β5 integrin receptor complex. 100 nM Fc-fused RUCILP2 was incubated with 5 nM of His-tag αV/β5 integrin receptor, followed by immunoprecipitation using nickel-nitrilotriacetic acid (Ni-NTA) agarose. Precipitated integrins and co-precipitated irisin were analyzed by immuno-blot analysis. Elution indicates a mixture of disassociated integrin and RUCILP2 from the integrin-RUCILP2 complex. Before loading, samples were a mixture of co-incubation of RUCILP2 and integrin receptor.
• Step 1: Binding of integrin and RUCILP2. One hundred nM FC-tagged RUCILP2 was incubated with 5 nM of the indicated his-tag integrin avb5 in a final volume of 500ul in 1.5 ml Protein LoBind Tubes (Eppendorf, 022431081) for 5/30/90 minutes at room temperature under rotation. • Step 2: After rotation, Ni spin column (ThermoFisher Scientific, R901-01) was applied to immunoprecipitate integrins. In details, Add 500 μl of FC-RUCILP2-integrin-His protein complex to the column. Mix end-over-end at 4° C. for 15 minutes. […] Precipitated integrin was detected by immuno-blot analysis against his tag. Co-precipitated RUCILP2 was detected by immunoblot analysis against FC-tag. […]

αV/β5 integrin receptor complex, sequence (P06756 31-992 limits assumed): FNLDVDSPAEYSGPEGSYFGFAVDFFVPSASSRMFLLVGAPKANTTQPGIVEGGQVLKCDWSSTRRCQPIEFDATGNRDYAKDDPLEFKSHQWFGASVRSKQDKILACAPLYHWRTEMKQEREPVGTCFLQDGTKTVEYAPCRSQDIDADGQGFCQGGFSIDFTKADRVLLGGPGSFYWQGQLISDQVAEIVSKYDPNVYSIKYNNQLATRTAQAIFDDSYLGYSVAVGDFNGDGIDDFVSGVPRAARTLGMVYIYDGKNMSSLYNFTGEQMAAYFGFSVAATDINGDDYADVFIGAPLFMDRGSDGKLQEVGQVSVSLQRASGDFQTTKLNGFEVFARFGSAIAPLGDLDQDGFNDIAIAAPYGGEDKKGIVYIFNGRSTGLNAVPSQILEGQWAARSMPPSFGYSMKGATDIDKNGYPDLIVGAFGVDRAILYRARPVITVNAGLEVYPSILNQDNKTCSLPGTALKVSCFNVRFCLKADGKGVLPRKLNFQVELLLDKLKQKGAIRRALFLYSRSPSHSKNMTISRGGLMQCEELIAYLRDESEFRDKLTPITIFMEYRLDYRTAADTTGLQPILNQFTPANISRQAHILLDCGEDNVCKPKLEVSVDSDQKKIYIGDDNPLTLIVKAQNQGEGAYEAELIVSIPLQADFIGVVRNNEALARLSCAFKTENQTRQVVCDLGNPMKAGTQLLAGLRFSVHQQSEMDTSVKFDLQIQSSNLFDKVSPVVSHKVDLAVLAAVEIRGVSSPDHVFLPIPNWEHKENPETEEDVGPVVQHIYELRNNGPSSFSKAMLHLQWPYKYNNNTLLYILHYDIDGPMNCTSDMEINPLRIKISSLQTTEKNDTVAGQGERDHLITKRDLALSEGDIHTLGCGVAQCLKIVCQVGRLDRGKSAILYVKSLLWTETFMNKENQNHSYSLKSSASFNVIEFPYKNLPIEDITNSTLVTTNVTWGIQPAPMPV
αV/β5 integrin receptor complex, sequence (P18084 24-719 limits assumed): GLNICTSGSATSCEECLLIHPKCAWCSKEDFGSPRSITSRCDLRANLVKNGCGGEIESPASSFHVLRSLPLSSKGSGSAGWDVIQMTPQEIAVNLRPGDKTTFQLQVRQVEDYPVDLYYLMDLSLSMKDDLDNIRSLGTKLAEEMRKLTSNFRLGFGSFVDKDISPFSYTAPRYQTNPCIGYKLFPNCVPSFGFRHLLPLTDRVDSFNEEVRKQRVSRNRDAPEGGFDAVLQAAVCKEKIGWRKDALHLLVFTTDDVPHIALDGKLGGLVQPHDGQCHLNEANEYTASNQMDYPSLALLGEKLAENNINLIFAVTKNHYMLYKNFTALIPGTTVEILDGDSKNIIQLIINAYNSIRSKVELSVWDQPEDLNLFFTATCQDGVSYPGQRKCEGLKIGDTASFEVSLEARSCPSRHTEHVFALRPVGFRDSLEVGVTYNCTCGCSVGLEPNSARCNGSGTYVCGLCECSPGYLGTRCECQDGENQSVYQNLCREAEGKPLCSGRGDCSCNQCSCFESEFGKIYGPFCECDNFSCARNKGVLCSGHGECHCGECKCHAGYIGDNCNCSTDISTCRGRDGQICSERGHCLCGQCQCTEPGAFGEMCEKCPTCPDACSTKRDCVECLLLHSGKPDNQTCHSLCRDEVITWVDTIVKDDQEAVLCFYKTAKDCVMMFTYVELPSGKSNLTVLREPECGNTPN

B1: RUCILP2: 87 amino acid irisin-like polypeptide cleaved from the Ruminococcus torques FNDC5-like protein RUMTOR_00181; recombinant, 6-His-tagged from E. coli (protein)
chain: APVDVKVSEITETSAKASWKNAADGKEAAGYNVYVDGVKLNKELLTEASCGLTNLKAETTYFVEVTAVDAAGNESVKSEKVTFKTLK
modifications: 6-His tag; Ruminococcus torques
notes: 87 amino acid irisin-like polypeptide cleaved from the Ruminococcus torques FNDC5-like protein RUMTOR_00181; recombinant, 6-His-tagged from E. coli
HepG2 cell line
  expression of genes involved in gluconeogenesis: reduces expression
Caco-2 cell line
  expression of genes involved in intestinal integration: increases expression
[1]
  binding to αV/β5 integrin receptor (co-immunoprecipitation): direct interaction

Source: US20240336661A1, “PEPTIDES DERIVED FROM RUMINOCOCCUS TORQUES” (University of Copenhagen, priority 2021, published 2024)
